# Experiment: soluble on expression in E. coli; label from the status in PepcDB or PDB records
row,Sequence,soluble on expression in E. coli
1,MSVELWQQCVDLLRDELPSQQFNTWIRPLQVEAEGDELRVYAPNRFVLDWVNEKYLGRLLELLGERGEGQLPALSLLIGSKRSRTPRAAIVPSQTHVAPPPPVAPPPAPVQPVSAAPVVVPREELPPVTTAPSVSSDPYEPEEPSIDPLAAAMPAGAAPAVRTERNVQVEGALKHTSYLNRTFTFENFVEGKSNQLARAAAWQVADNLKHGYNPLFLYGGVGLGKTHLMHAVGNHLLKKNPNAKVVYLHSERFVADMVKALQLNAINEFKRFYRSVDALLIDDIQFFARKERSQEEFFHTFNALLEGGQQVILTSDRYPKEIEGLEERLKSRFGWGLTVAVEPPELETRVAILMKKAEQAKIELPHDAAFFIAQRIRSNVRELEGALKRVIAHSHFMGRPITIELIRESLKDLLALQDKLVSIDNIQRTVAEYYKIKISDLLSKRRSRSVARPRQVAMALSKELTNHSLPEIGVAFGGRDHTTVLHACRKIAQLRESDADIREDYKNLLRTLTT,not soluble
2,MQTQQERISTGVKGLDELIEGGLIPGRVYLITGPPGSGKTTFGMQFLLEGARRGEKVAYISLIHKPEEVVRDMVRFDPSVYVYVNNWRLILYDLGPILWRESTKVPTWRSVLSRIREITENEKITRLVIDPLTAIDFPLQDPVEKRVELAKFVRSLENLGVTTYLIAEMVELDKYSEEHYLVSGIIMLHYFMHEGRMIRAIQIFKMRGTKHDPNLKLLKFTDQGLVVYNKSPFEVV,soluble
3,MGSDKIHHHHHHMNELTNKLQQVMVPKAALIAYEYRENRYGNGMHYLELHPINDRGRMEAAMPVTYEFMDSLVESYTDDRRNVPHGKIPANMLWCDTRKGHERYIWYNPPGKRRMFFAGSLNIPDGTFHVPGVIYKVSGDRLDIFSYKGEKPAENSPLFLAPFFNVTGSSVCLGNAALTPPEDMTFSKLLEYWEKRFWLSEFSHLGGSRNPTGSNLVSVTEKARANPFDENELKPMSKQLKDLLA,not soluble
4,MGSSHHHHHHSQDPMLSKDIIKLLNEQVNKEMNSSNLYMSMSSWCYTHSLDGAGLFLFDHAAEEYEHAKKLIIFLNENNVPVQLTSISAPEHKFEGLTQIFQKAYEHEQHISESINNIVDHAIKSKDHATFNFLQWYVAEQHEEEVLFKDILDKIELIGNENHGLYLADQYVKGIAKSRKS,soluble
5,MSLGTSYSEGVSSIHMVKGERGSNNLELTSESLSSTNDTIRRLQRDLLFLQNELRFEKFVRQQHLQNIGKLHREHILDMAVESERQKLLLTNKRYKAQIELLNSEIDKHRSESQAALNRRVKWENDFNNKIKALREEKKAWKSEESELKSSIESLISQLESIRNSQIDIAFSKNQLELKLQLYETKLKEYEQHLSCVNISKKQVSSSSDTSFGNTKMDSSMILSNSEAVSDEQERELIESEKHRMKLESENLHLQANIELLKKDLEAINVVYEAKIFDLEKRLSSEANAPELHNPVNLNYDAQLSKISEIKENYDELLTRYRELEGKFLESQAEVEELKNFQKPLVDTGSSIHSSPGLQEGHHHHHH,soluble
6,QLPPGTFIPYGLSLESATGVNFLTPTSFWKQTRMHASKRKLLRNMELLIIDEVSMLRADTLDLIDFVLRRVRSNPRSFGGVQVLFIGDLMQLPPVVKPHEWE,not soluble
7,MGSDKIHHHHHHMGVQETKIYPINTGWLEADLGTYIFWKGPAGQKIWNPVYCHYVDTGTHKILIDTGLCDEERATKYHHKCDKRGCLQVHEHLEQKLGVHPDEIDAVVFTHLHWDHVQNMKEFKNARYIAPKAEIEMAFNPLPLYYRTYESGYLGIEPAYTGCVFEAVEDECEVLPGITMFHTPGHSVGHMAVTVATSAGDIVVAGDAIFQERNMEPNEAEGWRYWVPARFVNSYEGWKSVEELDKRADYILACHDKVANARSNVFPYEGMPIRKRRQHIPGFKFYFGDMPAGATDKAAPALTADEAKEYLANLVPPTPD,not soluble
8,MGSSHHHHHHGKTIFVIVPTNEEQVAFLEALAKQDELNFDWQNPPTEPGQPVVILIPSDMVEWFLEMLKAKGIPFTVYVEEGGSENLYFQGGGGGGAHSLMRQMMLASVIRFTAVFLGIRRCRGAFVVAPLFVLQPLLQHLQQLITHPLTCLQGGIQWQLHALVEHLVHLQHLPSPRVQLSHVTKKRRAPVRKVVCGRIIHVHRTLLLLKQLRLLGVPGTQRAESSEHGGEPLTAVLVQLDKSIASRSGDNGDGGGRCR,not soluble
9,GHHHHHHAIAENLYFQSTGNAGEWCLMESDPGVFTELIKGFGCRGAQVEEIWSLEPENFEKLKPVHGLIFLFKWQPGEEPAGSVVQDSRLDTIFFAKQVINNACATQAIVSVLLNCTHQDVHLGETLSEFKEFSQSFDAAMKGLALSNSDVIRQVHNSFARQQMFEFDTKTSAKEEDAFHFVSYVPVNGRLYELDGLREGPIDLGACNQDDWISAVRPVIEKRIQKYSEGEIRFNLMAIVSDRKMIYEQKIAELQRQLAEEPMDTDQGNSMLSAIQSEVAKNQMLIEEEVQKLKRYKIENIRRKHNYLPFIMELLKTLAEHQQLIPLVEKAKEKQNAKKAQETK,not soluble
10,MSEDLMDLSPEEGIERFLRHREPSVRESTMRNAKTRLRFFNEWCEERDIENLNNLTGRDLADFVAWRRGDIAALTLQKQLSTIREALRYWADIEGVDDGLAEKVHAPELEHHHHHH,not soluble
11,MGSDKIHHHHHHMASIKDVAKLAGVSIATVSRVINGYNNVSEETRKKVIDAIRKLNYHPVYAVKGAVLKRTIGVLVPNFGGFHYNEILTGIEKEAIKRDFTLMISTTLHRTSVELERLEVFFAKRVDGIIVCSSKKDEEQLERLIKSAIPVVVVDREEPEIRLDNVGIDNYAAGRMCAKYLLEKGHRKVLLLKGRKDIYSFSDRERGFIDYSTRHGIDVKVTPCGYFAEHGYHAVERYLKKHGRDFTAIFAINDLSAFGALKALHDLGVLVPDEVSVMGFDDDPISSYTIPPLTTVRQPREEMGRVAFEILYERLSGKKGVARRVVLPVEIVERESVKQL,not soluble
12,MSLSMLAVAATALATFAIAPAQAQAEKPKDKVTLMLNWYLYSEHATFFLGKEKGFYAEEGIDLGIQEGRGSAVTAQAVAAKSATFGYIDVTTMIKAAAKGAPLKSTGVLFQVSPMSVMGLSEKNIATPKDIIGKTVAVTPGDSMSQMWPLFLKVNDIRPDQVKVVSGDGQTKLNAVANGQADLLLGYVMDQAIKLQDATGKPVTPIRFADSGVNQISSGIITHKNLLTENPDLVKRFMRASTKAAEAAEKSPEAAVDAMLKAHPKAGVRDTLIVGMKQSVALYHTQETANQRPFRVAMKNVNDSLDLLEGHHHHHH,not soluble
13,MSDQEDKEVPDVEVDYSKYDEDSVPIPEKDIEESHPGRPDLDYDETPVGPAPTECTEEKND,not soluble
14,MDPSQQTPQETVVAPVAPLLEDQLELDMKHCFENLIVIDVGANLTNKKYSRDLDSVVQRARDAGVQKLMVHGTSVKSSKEALRLSRIYPDIIYSTAGIHPHDSKSIVEEPATWFDLEHIAQAQECVAIGPCGLDYQRDFSEPDAQKQIFAKQLHLAIRLNKPLLIHERSAQLDLLEILDKFENLPPVIIRGFMGTAEEALKYLDRRFYISLTGYLCKDKSDTGVRRLLEDGTLPLDRLLVETDAPFMYPNTRASKLPQHVKTGITERSLLYLHRYCTFQRNEPCSLPAIVEMIAAFMKKSPDEVALATAFNALKLFGLSLEHHHHHH,soluble
15,MAHHHHHHMHHGATLHESLPCPLVSPIVSIDQCPFQPHERSETRPPHGNASLTFYTARSRCRVNFTPGPNVTYSAENKYSWNPYYRLETENKSQRLKAAQEECNSASVSGPCPIALTPRQGQCMARCSNTSSSTAQSPMHTFGCETPAIVSRCELSPQFSSVKSESGRALLTASHSIEENSITESTCVPQFDNMMHGLPMYASIHPVGEVWPLNEMNNEENVVFDAIKPTRNEQLQQQLYPTPLLVSQNQPTVSPYPYVMESRTIQPTYVSYNKARVPLLRFSKMLPPPVRCEAMSILENENPQLPLLMMYNPVLRWYERIKALLNEDYSAWPGGSCAVNISNNKSVRLELEEPCPTLPNKAEQTRENMSQWLKECNEWWDRQFFEKSRNGDKRRNGTGRGKWRQYSIQYPYNNHNNNNKAHKVNRGMQFDGEVAFLRRGGLQ,not soluble
16,MFLSTKFLPMSDTVIRIENLSKKYIIAHQQQERYTVLRDVIANQIKSLGSLINPKAKTENPNCEEFWALKDVSFEIKQGDRVGIIGRNGAGKSTLLKILSRITEPTHGCINIKGRIASLLEVGTGFHPELTGRENIYLNGAILGMSKAEIKRKFDEIVAFSEVEKFLDTPVKRYSSGMYVRLAFAVAAHLEPEILIVDEVLAVGDAAFQQKCLGKMEDVGKEGRTVLFVSHNMATVKQLCNCAFLLYQGNLIFQGNPHEAISQYMQKSTQGKHFHQANIYHHIKGDFRAEIEKITINNLDNSEIALSIFEKVKISIKYKINKPIDELDFFVLIYNLEDGEVQTSLFQRDSLSNIQPLSNYGTISVEFTNPLMPGKYTISAGIFDKNKRFVDWVELAESFYVESAFINGNKYDQRLGKISIQGTWYAE,not soluble
17,MGSDKIHHHHHHMYVLAIDQSTSGTKAIIFDEKGGIVHRVTVYHKQYYPKPGWVEHDPEEIFRNTLDACRKVIEESGIKPLEIEALAITNQRETTILWEKKSGKPVYNAVVWQCQRGASLCEEIKKRGLEGKIKEKTGLVVDPYFSASKIRWILDNVEGVKNKAKQGEIAFGTVDSWLIWKLTKGEVHATDFSNASRTLLLNIHELRWDEEVLEIFEIPPEILPELKSSDSVFGYTDLGFLPKKIPIVGVMGDSSAALFGQGGFYSGDIKVTYGTGSSTMLNIGEKPNVSDSPIVCSVGWVVKETSSYVLEGNIHSAGDTIVWLKEKLGIISDPSETEKIALSLENNGGVYLVPAFVGLGAPYWRSDVKAAILGLQRNHGKEHVVRAALESIAYQVRDIFEEMVRISSKEPTEVRADGGITRNRFLMQFQADILNIPVLVSNIEEVSARGVAFVALLHLGAFSDLEEIRQKITYREKYEPRMGDELREMYYEGWKTAIRKLLTE,not soluble
18,MKPIDEFLYVKQNYLTSDTNSLMRLYFPIIGSDAAGLYQYFVSFFDNGEKKHKFSEILNHTQFGMACFENALSVLTAMDLLVFYRQENLYYIKLKAPLNAETFLKNAVYRHLLEQKIGQVAVEHLDLHLPREAQDLSKQFSEVFTAAGQLDLKTPKSKTDFDLDHFKDLMIRDNLQFTDEQTDVIALYILSEKYQLTWYETYLLAKETASNYRISLKRMQAKQEQRDHVDADNSFSKKEQIIIEEAKADKVEVFLAKIKKTRHAAITKDERSLLAELAEMGFLDEVINIMLLYTLDKTNTANINKTYIMKIANDFAFQKIDSAEKAVLKLRSFAERKTKQNQKKIKESSKNNVPEWSNQDYQNNTTADEQARLDEIKRKTLAR,not soluble
19,MGSDKIHHHHHHVTDSDSQPVNEFPIAPPAPRKGRGAVTNLQGRYEVDQREAIDDGWLSLAEDDDEPKVLRTQVFEERAKTILTRNASPDIPFGVSLNPYRGCEHGCIYCFARPTHSYLGLSPGLDFESRIYAKVNAPELLERELSKKSYVPEPIALGVNTDAWQPAERDLQLTRRVIEVLSERHHPFAAITKSSLIERDLDLLAPMAARGQFMAAITITTLDAGIARTLEPRAATPSRRLRTIRTLSEAGIPVGVSIAPVIPFVTEPDMERVLEACAEAGASNASYIVLRLPWEVAPLFKDWLAAYFPDRAERVMGRVRDMRGGKDYDSSFSTRMKGEGLWADLLKQRFHKAVRRLGLNRRDRGILDMSHFRRIEPPRAGQPARNDSQLDLF,not soluble
20,MDVDLAAPMSESEKLLYRSNLLGSDKRITNYGGGNTSAKVIETDPLTGEPAEVLWVKGSGGDVGSIRMDGFATLYMDKLNALRGIYRGGEHEDEMVAFLRHCTFNLNPRAASIDTPLHAYVPAKHVDHMHPDAIIAIAAAKDSKKLTQEIFGDRIGWLPWKRPGYELGLWLSDFCEKNPDAKGVVLESHGLFTWADDARECYERTLEIIQTAMDWFAEQTAGKPAFGGALEHHHHHH,not soluble
